From article PMC12613623 come the findings set out here.

The target in assay [1] is T1, murine SIRT3 recombinant protein (mouse).
T1 sequence (Q8R104 whole entry, looked up): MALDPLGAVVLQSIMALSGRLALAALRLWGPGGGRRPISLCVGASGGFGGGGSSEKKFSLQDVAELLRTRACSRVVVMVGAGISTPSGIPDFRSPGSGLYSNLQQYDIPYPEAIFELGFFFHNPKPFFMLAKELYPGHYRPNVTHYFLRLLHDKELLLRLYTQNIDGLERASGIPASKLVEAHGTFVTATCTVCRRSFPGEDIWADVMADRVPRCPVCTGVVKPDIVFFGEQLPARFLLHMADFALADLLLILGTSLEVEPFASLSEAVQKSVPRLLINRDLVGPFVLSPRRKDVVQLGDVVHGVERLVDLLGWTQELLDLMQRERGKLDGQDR
In words: ITC; Nano ITC (TA Instruments); ATP5O titrated into a SIRT3-containing solution at 25 °C; NanoAnalyze.

Assay [2] has the same target. Kind of assay: SPR; SIRT3 immobilised on a carboxyl sensor chip; ATP5O diluted in running buffer and injected from low to high concentrations; kinetics analysed with Trace Drawer. For orientation: Surface plasmon resonance follows binding to a sensor surface in real time, without labels.

B1: murine ATP5O recombinant protein (natural protein)
chain: FAKLVRPPVQVYGIEGRYATALYSAASKEKKLDQVEKELLRVGQLLKDPKVSLAVLNPYIKRTVKVKSLNDITKREKFSPLTANLMNLLAENGRLGNTQGIISAFSTIMSVHRGEVPCTVTTASPLDDAVLSELKTVLKSFLSPNQILKLEIKTDPSIMGGMIVRIGEKYVDMSAKSKIQKLSKAMREML
With B1, the Kd (in general, the concentration at which binding is half-saturated) in assay [1] is 1310 nM. In assay [2], the Kd was found to be 0.0653 nM; the koff (as a rule, a measure of how fast the partners let go of each other) was determined as 5.54e-08 s⁻¹; the kon (in general, the rate constant with which the complex forms) turned out to be 850 M⁻¹ s⁻¹.
